Values of other authors as cited in patent publication US8278280B2, “Antagonists of the bradykinin B1 receptor” (priority 2003, dated 2012).

Target: T1, B2 receptors (Homo sapiens, UniProt P30411)
T1 sequence (P30411 1-391): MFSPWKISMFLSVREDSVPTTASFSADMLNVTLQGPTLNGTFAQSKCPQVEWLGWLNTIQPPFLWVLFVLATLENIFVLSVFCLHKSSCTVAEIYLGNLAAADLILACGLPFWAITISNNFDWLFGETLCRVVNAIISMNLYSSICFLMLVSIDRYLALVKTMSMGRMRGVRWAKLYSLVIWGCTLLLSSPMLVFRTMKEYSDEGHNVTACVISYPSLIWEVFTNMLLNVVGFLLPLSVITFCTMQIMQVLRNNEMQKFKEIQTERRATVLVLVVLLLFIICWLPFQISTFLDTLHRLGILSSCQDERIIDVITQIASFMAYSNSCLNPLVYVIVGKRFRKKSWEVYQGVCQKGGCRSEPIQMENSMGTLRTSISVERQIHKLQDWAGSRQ

## Arg Pro Pro Gly Phe Ser Pro Phe (RPPGFSPF; listed as Homo sapiens) [des-Arg-BK, B1 Agonist]
  activity at B2 receptors: inactive
